# Measurements from patent publication US20180371086A1.
# Target: human CD3, on primary human T cells (human) (UniProt P07766)
# Test: cell-based or functional assay
# Sequence of human CD3, on primary human T cells (human) (P07766 23-207 limits assumed): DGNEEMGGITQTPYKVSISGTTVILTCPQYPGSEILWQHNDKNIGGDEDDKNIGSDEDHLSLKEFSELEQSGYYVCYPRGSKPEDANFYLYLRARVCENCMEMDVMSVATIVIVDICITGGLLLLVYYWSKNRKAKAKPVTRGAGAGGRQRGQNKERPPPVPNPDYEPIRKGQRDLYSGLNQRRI
substance,measurement,value
PGT-121.60 (antibody),Ki-67 EC50; CD4 T cells; donor D1597; 7552-infected CEM cells,> 100 µg/mL
same,Ki-67 EC50; CD4 T cells; donor D1597; THRO-infected CEM cells,> 100 µg/mL
same,Ki-67 EC50; CD4 T cells; donor D1597; uninfected CEM cells,> 100 µg/mL
same,Ki-67 EC50; CD4 T cells; donor D2256; 7552-infected CEM cells,> 100 µg/mL
same,Ki-67 EC50; CD4 T cells; donor D2256; THRO-infected CEM cells,> 100 µg/mL
same,Ki-67 EC50; CD4 T cells; donor D2256; uninfected CEM cells,> 100 µg/mL
same,Ki-67 EC50; CD4 T cells; donor D4246; 7552-infected CEM cells,> 100 µg/mL
same,Ki-67 EC50; CD4 T cells; donor D4246; THRO-infected CEM cells,> 100 µg/mL
same,Ki-67 EC50; CD4 T cells; donor D4246; uninfected CEM cells,> 100 µg/mL
same,Ki-67 EC50; CD4 T cells; donor D4279; 7552-infected CEM cells,> 100 µg/mL
same,Ki-67 EC50; CD4 T cells; donor D4279; THRO-infected CEM cells,> 100 µg/mL
same,Ki-67 EC50; CD4 T cells; donor D4279; uninfected CEM cells,> 100 µg/mL
same,Ki-67 EC50; CD8 T cells; donor D1597; 7552-infected CEM cells,> 100 µg/mL
same,Ki-67 EC50; CD8 T cells; donor D1597; THRO-infected CEM cells,> 100 µg/mL
same,Ki-67 EC50; CD8 T cells; donor D1597; uninfected CEM cells,> 100 µg/mL
same,Ki-67 EC50; CD8 T cells; donor D2256; 7552-infected CEM cells,> 100 µg/mL
same,Ki-67 EC50; CD8 T cells; donor D2256; THRO-infected CEM cells,> 100 µg/mL
same,Ki-67 EC50; CD8 T cells; donor D2256; uninfected CEM cells,> 100 µg/mL
same,Ki-67 EC50; CD8 T cells; donor D4246; 7552-infected CEM cells,> 100 µg/mL
same,Ki-67 EC50; CD8 T cells; donor D4246; THRO-infected CEM cells,> 100 µg/mL
same,Ki-67 EC50; CD8 T cells; donor D4246; uninfected CEM cells,> 100 µg/mL
same,Ki-67 EC50; CD8 T cells; donor D4279; 7552-infected CEM cells,> 100 µg/mL
same,Ki-67 EC50; CD8 T cells; donor D4279; THRO-infected CEM cells,> 100 µg/mL
same,Ki-67 EC50; CD8 T cells; donor D4279; uninfected CEM cells,> 100 µg/mL
same,Ki-67 Δ Emax; CD4 T cells; donor D1597; 7552-infected CEM cells,1%
same,Ki-67 Δ Emax; CD4 T cells; donor D1597; THRO-infected CEM cells,-1%
same,Ki-67 Δ Emax; CD4 T cells; donor D1597; uninfected CEM cells,1%
same,Ki-67 Δ Emax; CD4 T cells; donor D2256; 7552-infected CEM cells,0%
same,Ki-67 Δ Emax; CD4 T cells; donor D2256; THRO-infected CEM cells,-2%
same,Ki-67 Δ Emax; CD4 T cells; donor D2256; uninfected CEM cells,0%
same,Ki-67 Δ Emax; CD4 T cells; donor D4246; 7552-infected CEM cells,0%
same,Ki-67 Δ Emax; CD4 T cells; donor D4246; THRO-infected CEM cells,0%
same,Ki-67 Δ Emax; CD4 T cells; donor D4246; uninfected CEM cells,0%
same,Ki-67 Δ Emax; CD4 T cells; donor D4279; 7552-infected CEM cells,-1%
same,Ki-67 Δ Emax; CD4 T cells; donor D4279; THRO-infected CEM cells,1%
same,Ki-67 Δ Emax; CD4 T cells; donor D4279; uninfected CEM cells,1%
same,Ki-67 Δ Emax; CD8 T cells; donor D1597; 7552-infected CEM cells,0%
same,Ki-67 Δ Emax; CD8 T cells; donor D1597; THRO-infected CEM cells,0%
same,Ki-67 Δ Emax; CD8 T cells; donor D1597; uninfected CEM cells,0%
same,Ki-67 Δ Emax; CD8 T cells; donor D2256; 7552-infected CEM cells,0%
same,Ki-67 Δ Emax; CD8 T cells; donor D2256; THRO-infected CEM cells,0%
same,Ki-67 Δ Emax; CD8 T cells; donor D2256; uninfected CEM cells,0%
same,Ki-67 Δ Emax; CD8 T cells; donor D4246; 7552-infected CEM cells,0%
same,Ki-67 Δ Emax; CD8 T cells; donor D4246; THRO-infected CEM cells,0%
same,Ki-67 Δ Emax; CD8 T cells; donor D4246; uninfected CEM cells,0%
same,Ki-67 Δ Emax; CD8 T cells; donor D4279; 7552-infected CEM cells,0%
same,Ki-67 Δ Emax; CD8 T cells; donor D4279; THRO-infected CEM cells,0%
same,Ki-67 Δ Emax; CD8 T cells; donor D4279; uninfected CEM cells,0%
